Test [1] addresses C4-2. Kind of test: flow cytometry; C4-2 cells; apparent Kd. (In flow cytometry, cells or beads pass a laser one at a time.)
In test [2] the target is C4-2 cells. The test is described as follows: flow.
Test [3] has as its target C4-2. The test is described as follows: flow.
For test [4], the target named is C4-2 cells. The test is described as follows: flow cytometry; C4-2 cells; apparent Kd.

No end group written: not given here.

B1: HSD (peptide)
peptide: HSDNHYRPADKL
modifications: also: FAM label, position not given here
As to B1, the Kd with C4-2 [1] stood at 30.8 µM.

B2: TGH (peptide)
peptide: TGHLYPTRMEIQ
modifications: also: FAM label, position not given here
For the molecule B2, the Kd in the test with C4-2 [1] stood at 44.1 µM.

B3: GTI (peptide)
peptide: GTIQPYPFSWGY
modifications: also: FAM (fluorescein amidite) label, position not given here
Regarding B3, the Kd in the test with C4-2 cells [2] and with C4-2 [3] was 8.91 µM in each case.

B4: YVN (peptide)
peptide: YVNSHSILGYTG
modifications: also: FAM label, position not given here
Consider B4, for which the Kd with C4-2 [1] came to 9.79 µM.

B5: Scrambled GTI (peptide)
peptide: SGYQTFYWPGPI
modifications: also: FAM label, position not given here
In the case of B5, the Kd with C4-2 cells [4] was greater than 100 µM.
